“And” between values parts separate entries of the source, which are not always exact repeats. Equal values may be shown once.

We go through seven proteins from article PMC10945584, “Dual recognition of multiple signals in bacterial outer membrane proteins enhances assembly and maintains membrane integrity” (eLife, 2024).

Data set [1] concerns the molecule itself. As to the kind of experiment: native gel or EMSA; 35S-labeled substrate incubated with E. coli microsomal membranes (EMM) at 30 °C, membranes solubilised in 1.5% DDM, BN-PAGE and radio-imaging. On the technique in general: In EMSA bound probe runs differently from free probe, usually more slowly.
Data set [2] deals with the molecule itself. Kind of data set: native gel or EMSA; EMM from E. coli strains solubilised with 1.5% DDM, BN-PAGE and immunoblotting.
Data set [3] concerns the molecule itself. Kind of data set: SDS-PAGE of unboiled samples after folding into detergent micelles; 5 μM urea-denatured OmpC in 10 mM phosphate pH 8.0, 2 mM EDTA, 1 mM glycine, 3.4 mM DDM, 37 °C up to 36 h; samples boiled or kept at room temperature.

B1: 35S-labeled LamB, in vitro translated (natural protein, Escherichia coli, UniProt P02943 1-446, looked up)
chain: MMITLRKLPLAVAVAAGVMSAQAMAVDFHGYARSGIGWTGSGGEQQCFQTTGAQSKYRLGNECETYAELKLGQEVWKEGDKSFYFDTNVAYSVAQQNDWEATDPAFREANVQGKNLIEWLPGSTIWAGKRFYQRHDVHMIDFYYWDISGPGAGLENIDVGFGKLSLAATRSSEAGGSSSFASNNIYDYTNETANDVFDVRLAQMEINPGGTLELGVDYGRANLRDNYRLVDGASKDGWLFTAEHTQSVLKGFNKFVVQYATDSMTSQGKGLSQGSGVAFDNEKFAYNINNNGHMLRILDHGAISMGDNWDMMYVGMYQDINWDNDNGTKWWTVGIRPMYKWTPIMSTVMEIGYDNVESQRTGDKNNQYKITLAQQWQAGDSIWSRPAIRVFATYAKWDEKWGYDYTGNADNNANFGKAVPADFNGGSFGRGDSDEWTFGAQMEIWW
modifications: 35S-methionine label
notes: LamB (maltoporin), E. coli; also called maltoporin; source: in vitro translated (rabbit reticulocyte lysate, 35S-methionine)
Turning to B1, in data set [1], the stoichiometry N (in general, a count of units in the complex or per binding partner) is 3.

B2: 35S-labeled OmpC(Y286A), in vitro translated (natural protein, Escherichia coli, UniProt P06996 1-367, looked up)
chain: MKVKVLSLLVPALLVAGAANAAEVYNKDGNKLDLYGKVDGLHYFSDNKDVDGDQTYMRLGFKGETQVTDQLTGYGQWEYQIQGNSAENENNSWTRVAFAGLKFQDVGSFDYGRNYGVVYDVTSWTDVLPEFGGDTYGSDNFMQQRGNGFATYRNTDFFGLVDGLNFAVQYQGKNGNPSGEGFTSGVTNNGRDALRQNGDGVGGSITYDYEGFGIGGAISSSKRTDAQNTAAYIGNGDRAETYTGGLKYDANNIYLAAQYTQTYNATRVGSLGWANKAQNFEAVAQAQFDFGLRPSLAYLQSKGKNLGRGYDDEDILKYVDVGATYYFNKNMSTYVDYKINLLDDNQFTRDAGINTDNIVALGLVYQF
modifications: 35S-methionine label
notes: OmpC, E. coli; also called internal signal mutant; source: in vitro translated (rabbit reticulocyte lysate, 35S-methionine)
Take B2: the “stoichiometry N” value in data set [1] was 3.

B3: 35S-labeled OmpC, in vitro translated (natural protein, Escherichia coli, UniProt P06996 1-367, looked up)
chain: MKVKVLSLLVPALLVAGAANAAEVYNKDGNKLDLYGKVDGLHYFSDNKDVDGDQTYMRLGFKGETQVTDQLTGYGQWEYQIQGNSAENENNSWTRVAFAGLKFQDVGSFDYGRNYGVVYDVTSWTDVLPEFGGDTYGSDNFMQQRGNGFATYRNTDFFGLVDGLNFAVQYQGKNGNPSGEGFTSGVTNNGRDALRQNGDGVGGSITYDYEGFGIGGAISSSKRTDAQNTAAYIGNGDRAETYTGGLKYDANNIYLAAQYTQTYNATRVGSLGWANKAQNFEAVAQYQFDFGLRPSLAYLQSKGKNLGRGYDDEDILKYVDVGATYYFNKNMSTYVDYKINLLDDNQFTRDAGINTDNIVALGLVYQF
modifications: 35S-methionine label
notes: OmpC, E. coli; also called 35S-OmpC; OmpC(WT); source: in vitro translated (rabbit reticulocyte lysate, 35S-methionine)
Turning to B3, the “stoichiometry N” value in data set [1] was 3.

B4: 35S-labeled OmpF, in vitro translated (natural protein, Escherichia coli, UniProt P02931 1-362, looked up)
chain: MMKRNILAVIVPALLVAGTANAAEIYNKDGNKVDLYGKAVGLHYFSKGNGENSYGGNGDMTYARLGFKGETQINSDLTGYGQWEYNFQGNNSEGADAQTGNKTRLAFAGLKYADVGSFDYGRNYGVVYDALGYTDMLPEFGGDTAYSDDFFVGRVGGVATYRNSNFFGLVDGLNFAVQYLGKNERDTARRSNGDGVGGSISYEYEGFGIVGAYGAADRTNLQEAQPLGNGKKAEQWATGLKYDANNIYLAANYGETRNATPITNKFTNTSGFANKTQDVLLVAQYQFDFGLRPSIAYTKSKAKDVEGIGDVDLVNYFEVGATYYFNKNMSTYVDYIINQIDSDNKLGVGSDDTVAVGIVYQF
modifications: 35S-methionine label
notes: OmpF, E. coli; source: in vitro translated (rabbit reticulocyte lysate, 35S-methionine)
Consider B4, for which, in data set [1], the “stoichiometry N” value is 3.

B5: FLAG-OmpC expressed in E. coli (natural protein, Escherichia coli, UniProt P06996 22-367, looked up)
chain: AEVYNKDGNKLDLYGKVDGLHYFSDNKDVDGDQTYMRLGFKGETQVTDQLTGYGQWEYQIQGNSAENENNSWTRVAFAGLKFQDVGSFDYGRNYGVVYDVTSWTDVLPEFGGDTYGSDNFMQQRGNGFATYRNTDFFGLVDGLNFAVQYQGKNGNPSGEGFTSGVTNNGRDALRQNGDGVGGSITYDYEGFGIGGAISSSKRTDAQNTAAYIGNGDRAETYTGGLKYDANNIYLAAQYTQTYNATRVGSLGWANKAQNFEAVAQYQFDFGLRPSLAYLQSKGKNLGRGYDDEDILKYVDVGATYYFNKNMSTYVDYKINLLDDNQFTRDAGINTDNIVALGLVYQF
notes: OmpC, E. coli; Two plasmid names are printed for FLAG-OmpC; also called FLAG-OmpC(WT); FLAG-tagged form of OmpC; not shown: FLAG, N-terminal, kept
As to B5, in data set [2], the “stoichiometry N” value is 2 and 3.

B6: OmpC, His6-tagged, purified, urea-denatured (natural protein, Escherichia coli, UniProt P06996 22-367, looked up)
chain: AEVYNKDGNKLDLYGKVDGLHYFSDNKDVDGDQTYMRLGFKGETQVTDQLTGYGQWEYQIQGNSAENENNSWTRVAFAGLKFQDVGSFDYGRNYGVVYDVTSWTDVLPEFGGDTYGSDNFMQQRGNGFATYRNTDFFGLVDGLNFAVQYQGKNGNPSGEGFTSGVTNNGRDALRQNGDGVGGSITYDYEGFGIGGAISSSKRTDAQNTAAYIGNGDRAETYTGGLKYDANNIYLAAQYTQTYNATRVGSLGWANKAQNFEAVAQYQFDFGLRPSLAYLQSKGKNLGRGYDDEDILKYVDVGATYYFNKNMSTYVDYKINLLDDNQFTRDAGINTDNIVALGLVYQF
notes: OmpC, E. coli; also called OmpC(WT); native OmpC protein; source: E. coli BL21(DE3)*, inclusion bodies, purified in 6 M urea (Ni-NTA)
On to B6, for which the “stoichiometry N” value in data set [3] is 3 and 2.

B7: OmpF, endogenous (natural protein, Escherichia coli (endogenous), UniProt P02931 23-362, looked up)
chain: AEIYNKDGNKVDLYGKAVGLHYFSKGNGENSYGGNGDMTYARLGFKGETQINSDLTGYGQWEYNFQGNNSEGADAQTGNKTRLAFAGLKYADVGSFDYGRNYGVVYDALGYTDMLPEFGGDTAYSDDFFVGRVGGVATYRNSNFFGLVDGLNFAVQYLGKNERDTARRSNGDGVGGSISYEYEGFGIVGAYGAADRTNLQEAQPLGNGKKAEQWATGLKYDANNIYLAANYGETRNATPITNKFTNTSGFANKTQDVLLVAQYQFDFGLRPSIAYTKSKAKDVEGIGDVDLVNYFEVGATYYFNKNMSTYVDYIINQIDSDNKLGVGSDDTVAVGIVYQF
notes: OmpF, E. coli; also called endogenous OmpF; trimeric OmpF; source: endogenous, E. coli membrane fractions (EMM)
With B7, the “stoichiometry N” value in data set [2] is 3 and 2.
